# Reference: the supplement of paper PMC10567573
# B1: VPS39 (parent)
# chain: TTLLKCYLHTNVALVAPLLRLENN
# B2: CHCHD3 (parent)
# chain: YSGAYGASVSDEELKRRVAEELAL
# Variants of: B1
# Experiment: protein stability index of a GFP-peptide fusion (GPS, HEK-293T) (PSI 1-6); higher = more stable
# Settings: c terminus: a fixed tail appended
# 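Note: lentivirally expressed fusions sorted by FACS into six bins by GFP to DsRed ratio, PSI derived from sequencing read proportions per bin multiplied by bin number.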
row,Variant,protein stability index
1,A13R,1.57
2,A13D,1.36
3,L4D,1.35
4,L4G,3.33
5,L4R,2.48
6,N23C,2.8
7,N23W,1.88
8,N23K,2.27
9,N23M,2.81
10,K5T,2.57
11,K5N,2.49
12,K5P,1.88
13,T1A,3.76
14,T1K,3.52
15,V15H,2.17
16,V15F,2.62
17,V15R,1.85
18,V15P,3.16
19,V15E,1.35
20,T2A,1.61

row,Variant,protein stability index
1,E22A,1.66
2,E22S,2.82
3,E22V,1.69
4,E22C,1.92
5,A16N,2.16
6,A16P,3.28
7,A16M,2.02
8,H9T,3.1
9,V12D,1.97
10,V12S,3.9
11,V12F,2.91
12,Y7R,1.76
13,Y7S,3.15
14,N11I,1.85
15,L3T,2.58
16,L3A,3.88
17,L3K,2.1
18,L3W,3.19
19,L3P,1.96
20,L8C,1.07

row,Variant,protein stability index
1,L8W,2.17
2,L8S,1.44
3,L8M,4.41
4,L8R,2.35
5,N24D,2.7
6,R20Y,3.2
7,R20D,2.23
8,R20G,2.65
9,L18P,2.27
10,L21I,2.16
11,L21S,1.63
12,L21W,2.05
13,L21N,3.2
14,L21C,3.59
15,L21Q,2.14
16,L19H,1.7
17,L19V,2.79
18,L14M,2.27
19,L14Q,1.68

# Variants of: B2
# Experiment: as above
# Settings: c terminus: a fixed tail appended
row,Variant,protein stability index
1,G3I,4.29
2,G3W,2.63
3,G3E,4.87
4,G3M,3.81
5,G3S,3.37
6,G3K,3.17
7,G3F,3.05
8,G3A,2.94
9,V18P,2.58
10,V18Y,2.09
11,V18W,2.35
12,V18D,2.54
13,V18F,2.64
14,V18T,2.39
15,V18N,2.73
16,V18Q,1.72
17,V18R,2.44
18,S2K,4.35
19,S2R,4.62
20,S2W,4.26
21,S2N,3.63
22,S2Y,4.05
23,S2H,1.38
24,S2D,5.1
25,S2V,1.9

row,Variant,protein stability index
1,S2M,3.24
2,S2F,3.45
3,S2T,2.27
4,S2L,2.88
5,S2G,3.62
6,S2C,2.48
7,E21S,3.57
8,E21L,2.87
9,E21N,2.9
10,E21P,3.47
11,E21F,2.44
12,E21V,2.19
13,E21G,3.32
14,E21Q,3.05
15,E21W,2.62
16,E21H,2.44
17,E21I,2.12
18,L24S,2.31
19,L24M,2.74
20,L24D,2.52
21,L24W,2.33
22,L24H,2.31
23,L24R,2.52
24,L24F,1.77
25,L24T,2.48

row,Variant,protein stability index
1,L24P,2.27
2,L24A,2.62
3,L24Y,2.5
4,L24K,2.87
5,L24G,2.96
6,L24V,2.37
7,L24N,2.54
8,G6Y,1.9
9,G6H,2.3
10,G6R,2.42
11,G6K,2.06
12,G6E,4.05
13,G6I,2.12
14,G6L,2.06
15,G6F,2.09
16,G6D,4.67
17,G6C,2.22
18,G6W,1.64
19,G6S,2.13
20,K15I,2.5
21,K15C,3.2
22,K15A,2.99
23,K15T,2.22
24,K15R,2.84
25,K15N,2.19

row,Variant,protein stability index
1,K15S,3.47
2,K15L,2.52
3,K15F,2.11
4,K15M,2.61
5,K15G,2.58
6,L14P,2.24
7,L14C,2.77
8,L14W,2.34
9,L14H,2.79
10,L14D,3.3
11,L14K,2.94
12,L14N,2.47
13,L14A,1.78
14,L14G,3.46
15,D11H,2.08
16,D11N,2.37
17,D11W,2.31
18,D11L,2.57
19,D11V,3.23
20,D11Q,2.34
21,D11T,2.24
22,D11R,2.24
23,D11P,1.7
24,E12K,2.53
25,E12I,2.92

row,Variant,protein stability index
1,E12D,2.99
2,E12Q,2.09
3,E12W,3.11
4,E12F,2.09
5,E12L,2.17
6,E12N,2.4
7,E12R,2.59
8,E12T,2.71
9,A23Q,2.58
10,A23L,2.72
11,A23M,2.65
12,A23I,2.52
13,A23F,2.97
14,A23V,2.55
15,A23C,3.08
16,A23R,2.26
17,A23N,2.97
18,A23Y,2.7
19,A23T,3.13
20,A23P,3.31
21,A19R,2.95
22,A19E,3.04
23,A19I,2.49
24,A19K,2.47
25,A19T,1.94

row,Variant,protein stability index
1,A19Q,2.56
2,A19C,2.67
3,A19G,3.1
4,A19S,2.05
5,A19F,2.54
6,A19Y,2.27
7,L22C,2.57
8,L22N,3.21
9,L22Y,1.94
10,L22S,2.4
11,L22F,1.59
12,L22I,2.7
13,L22V,3.58
14,L22H,2.05
15,L22W,1.89
16,L22K,2.19
17,L22A,2.5
18,L22R,3.32
19,L22M,2.87
20,L22D,2.75
21,A4T,3.66
22,A4E,3.31
23,A4K,2.63
24,A4F,1.95
25,A4P,4.24

row,Variant,protein stability index
1,A4R,3.03
2,A4S,3.39
3,A4C,2.64
4,A4D,4.64
5,A4W,2.11
6,A4V,3.03
7,S8H,2.98
8,S8R,2.88
9,S8C,2.04
10,S8D,4.18
11,S8Y,2.07
12,S8E,3.77
13,S8G,3.1
14,S8W,4.28
15,S8F,2
16,S8T,2.01
17,S8N,3.22
18,S8I,2.08
19,S8L,1.42
20,S8Q,3.02
21,S8P,2.07
22,R17S,2.52
23,R17M,1.94
24,R17H,2.4
25,R17D,2.54

row,Variant,protein stability index
1,R17G,2.36
2,R17E,3.17
3,R17K,2.31
4,R17A,2.57
5,R17C,2.06
6,R17W,2.38
7,R17P,2.64
8,R17I,2.4
9,R17T,2.53
10,R17Y,2.33
11,R17N,2.61
12,A7C,1.72
13,A7D,4.27
14,A7W,1.39
15,A7F,2.58
16,A7K,2.38
17,A7P,2.94
18,A7H,2.98
19,A7L,2.42
20,A7G,3.43
21,A7E,4.3
22,Y1G,4.87
23,Y1M,5.2
24,Y1L,4.87
25,Y1H,4.99

row,Variant,protein stability index
1,Y1S,5.45
2,Y1I,4.74
3,Y1D,5.4
4,Y1A,4.93
5,Y1C,3.63
6,Y1T,4.34
7,S10D,3.35
8,S10M,2.86
9,S10Q,2.72
10,S10N,2.4
11,S10V,2.92
12,S10L,2.8
13,S10E,3.58
14,S10H,2.98
15,S10F,2.64
16,S10P,2.6
17,S10W,1.89
18,E20M,2.16
19,E20V,1.57
20,E20A,2.19
21,E20Q,2.68
22,E20G,1.58
23,E20F,1.99
24,E20C,2.48
25,E20W,1.85

row,Variant,protein stability index
1,E20L,2.22
2,E20I,2.4
3,E20P,2.49
4,E20D,3.01
5,E20Y,2.27
6,E20R,2.49
7,E13H,2.67
8,E13G,2.18
9,E13L,2.85
10,E13Q,2.3
11,E13T,2.66
12,E13C,2.33
13,E13N,2.44
14,E13V,2.38
15,E13Y,1.76
16,E13W,2.56
17,R16N,2.65
18,R16H,2.45
19,R16S,1.95
20,R16Q,2.64
21,R16F,2.3
22,R16P,2.55
23,R16A,2.34
24,R16L,2.75
25,V9P,3.13

row,Variant,protein stability index
1,V9E,4.28
2,V9Q,3.18
3,V9F,2.67
4,V9K,2.57
5,V9S,3.07
6,V9N,3.35
7,V9A,3.3
8,V9I,2.95
9,V9H,2.77
10,V9W,2.71
11,Y5N,4.55
12,Y5S,4.99
13,Y5I,4.44
14,Y5L,4.86
15,Y5G,4.92
16,Y5H,4.02
17,Y5F,1.33
18,Y5W,2.4
19,Y5M,3.73
20,Y5E,5.32
21,Y5C,2.75
22,Y5R,4.59
23,Y5A,5.09
24,Y5D,5.3
25,Y5Q,5.28
